The record followed here is patent US20050002904A1 (published 2005).

Test [1] deals with T1, p120catenin (human, UniProt O60716 1-968, limits assumed).
T1 sequence (looked up): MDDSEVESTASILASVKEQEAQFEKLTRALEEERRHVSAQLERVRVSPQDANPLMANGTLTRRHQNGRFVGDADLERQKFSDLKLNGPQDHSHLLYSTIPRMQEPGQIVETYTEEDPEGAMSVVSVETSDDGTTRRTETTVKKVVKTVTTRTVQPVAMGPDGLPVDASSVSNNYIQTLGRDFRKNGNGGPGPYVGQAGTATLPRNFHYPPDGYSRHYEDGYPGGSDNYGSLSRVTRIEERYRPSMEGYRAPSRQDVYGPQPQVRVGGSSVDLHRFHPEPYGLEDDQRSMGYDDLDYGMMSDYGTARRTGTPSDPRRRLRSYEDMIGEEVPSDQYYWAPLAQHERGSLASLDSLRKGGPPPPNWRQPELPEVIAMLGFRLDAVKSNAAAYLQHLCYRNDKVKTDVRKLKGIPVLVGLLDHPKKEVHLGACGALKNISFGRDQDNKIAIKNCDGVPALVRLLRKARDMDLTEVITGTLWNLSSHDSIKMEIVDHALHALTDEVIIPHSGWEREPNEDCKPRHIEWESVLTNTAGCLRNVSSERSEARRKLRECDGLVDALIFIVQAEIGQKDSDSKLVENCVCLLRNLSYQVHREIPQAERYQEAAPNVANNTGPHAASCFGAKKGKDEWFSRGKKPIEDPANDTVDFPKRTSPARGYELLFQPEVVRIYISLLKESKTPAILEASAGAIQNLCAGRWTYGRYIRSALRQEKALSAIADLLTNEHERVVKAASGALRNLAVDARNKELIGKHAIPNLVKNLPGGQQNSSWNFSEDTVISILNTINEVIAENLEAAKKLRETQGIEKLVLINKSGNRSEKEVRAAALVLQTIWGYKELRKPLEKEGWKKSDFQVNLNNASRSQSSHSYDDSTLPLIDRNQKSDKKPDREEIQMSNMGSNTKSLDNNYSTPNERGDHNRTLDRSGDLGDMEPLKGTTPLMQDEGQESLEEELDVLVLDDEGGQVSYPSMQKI
In words: cell-based or functional assay.

Test [2] concerns the target VEGF receptor-2 (VEGFR-2) (human, UniProt P35968 20-1356). In words: co-immunoprecipitation from HUVECs, western blot of identical blots. (A western blot detects proteins with antibodies after separation by electrophoresis.)
The target of another test is Tie-2 (human, UniProt Q02763 23-1124). The description is as above.
Another test concerns the target CD36 (human, UniProt P16671 2-472). The test is described as above.
For a further test, the target named is PECAM-1 (human, UniProt P16284 28-738). The description is as above.
For a further test, the target named is T2, VE-cadherin (human, UniProt P33151 48-784).
T2 sequence (looked up): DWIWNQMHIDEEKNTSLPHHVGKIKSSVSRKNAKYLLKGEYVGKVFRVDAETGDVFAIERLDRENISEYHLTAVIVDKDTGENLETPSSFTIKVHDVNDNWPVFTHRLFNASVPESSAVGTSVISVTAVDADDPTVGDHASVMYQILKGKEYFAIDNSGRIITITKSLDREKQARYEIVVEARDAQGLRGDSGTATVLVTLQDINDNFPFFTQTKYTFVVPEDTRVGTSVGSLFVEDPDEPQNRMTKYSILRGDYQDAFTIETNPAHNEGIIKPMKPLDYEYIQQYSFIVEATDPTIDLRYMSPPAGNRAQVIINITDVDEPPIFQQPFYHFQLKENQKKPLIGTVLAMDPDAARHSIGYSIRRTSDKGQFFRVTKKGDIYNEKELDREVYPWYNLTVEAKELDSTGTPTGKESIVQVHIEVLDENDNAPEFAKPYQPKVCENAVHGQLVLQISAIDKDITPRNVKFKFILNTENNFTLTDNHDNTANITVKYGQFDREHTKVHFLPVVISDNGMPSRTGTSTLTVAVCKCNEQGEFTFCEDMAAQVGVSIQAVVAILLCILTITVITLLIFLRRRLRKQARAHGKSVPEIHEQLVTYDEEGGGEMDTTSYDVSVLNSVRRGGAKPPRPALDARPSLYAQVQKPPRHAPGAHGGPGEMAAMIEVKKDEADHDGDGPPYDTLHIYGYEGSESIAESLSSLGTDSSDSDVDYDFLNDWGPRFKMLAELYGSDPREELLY
In words: co-immunoprecipitation from HUVECs infected with wild-type PAP2b, western blot.

A further test deals with T3, β-catenin (human, UniProt P35222 2-781).
T3 sequence (looked up): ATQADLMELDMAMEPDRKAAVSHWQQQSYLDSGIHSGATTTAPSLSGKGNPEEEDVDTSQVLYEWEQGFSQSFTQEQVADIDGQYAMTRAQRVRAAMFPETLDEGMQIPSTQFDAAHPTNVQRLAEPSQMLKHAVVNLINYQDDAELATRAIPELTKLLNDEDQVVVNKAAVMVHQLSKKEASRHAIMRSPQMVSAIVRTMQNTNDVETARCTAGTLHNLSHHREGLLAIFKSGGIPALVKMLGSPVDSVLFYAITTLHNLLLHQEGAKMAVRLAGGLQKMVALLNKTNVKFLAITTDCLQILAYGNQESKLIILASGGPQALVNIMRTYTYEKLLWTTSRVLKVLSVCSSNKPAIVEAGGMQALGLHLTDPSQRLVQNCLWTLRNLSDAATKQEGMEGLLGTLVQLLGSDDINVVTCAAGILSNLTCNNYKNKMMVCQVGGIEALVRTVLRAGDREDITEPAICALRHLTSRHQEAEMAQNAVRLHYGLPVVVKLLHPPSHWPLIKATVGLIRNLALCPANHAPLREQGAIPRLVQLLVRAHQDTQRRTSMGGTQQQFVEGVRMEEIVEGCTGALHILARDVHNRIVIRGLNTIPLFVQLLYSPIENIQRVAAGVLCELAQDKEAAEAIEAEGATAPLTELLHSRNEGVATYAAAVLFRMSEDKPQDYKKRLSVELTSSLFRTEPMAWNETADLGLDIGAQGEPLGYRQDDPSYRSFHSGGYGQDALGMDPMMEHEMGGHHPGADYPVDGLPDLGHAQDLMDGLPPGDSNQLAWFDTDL
The test is described as above.

In another test the target is T4, γ-catenin (plakoglobin) (human, UniProt P14923 1-745).
T4 sequence (looked up): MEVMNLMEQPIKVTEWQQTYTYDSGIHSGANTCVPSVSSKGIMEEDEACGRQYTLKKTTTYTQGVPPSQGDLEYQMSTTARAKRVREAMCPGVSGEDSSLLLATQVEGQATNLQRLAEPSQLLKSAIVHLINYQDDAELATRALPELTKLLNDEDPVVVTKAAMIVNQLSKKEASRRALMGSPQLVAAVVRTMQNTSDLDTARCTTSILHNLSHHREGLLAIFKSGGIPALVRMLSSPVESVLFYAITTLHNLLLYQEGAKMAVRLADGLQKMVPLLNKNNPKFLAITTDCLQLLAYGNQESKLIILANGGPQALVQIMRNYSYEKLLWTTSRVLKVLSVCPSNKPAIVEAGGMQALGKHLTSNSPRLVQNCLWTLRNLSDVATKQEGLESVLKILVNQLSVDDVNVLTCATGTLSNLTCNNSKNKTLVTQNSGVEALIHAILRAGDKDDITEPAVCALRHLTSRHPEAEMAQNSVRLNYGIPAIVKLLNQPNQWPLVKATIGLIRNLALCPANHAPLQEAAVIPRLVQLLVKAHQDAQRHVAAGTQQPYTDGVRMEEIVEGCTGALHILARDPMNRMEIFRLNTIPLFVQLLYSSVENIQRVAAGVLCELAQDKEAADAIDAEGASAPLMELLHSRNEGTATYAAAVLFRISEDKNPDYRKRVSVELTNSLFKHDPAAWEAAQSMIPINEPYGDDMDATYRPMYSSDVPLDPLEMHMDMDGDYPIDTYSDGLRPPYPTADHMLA
Described as above.

A further test concerns the target soluble α2β1 integrin (UniProt P17301 30-1132; P05556 21-728). In words: solid-phase ligand binding ELISA, integrin immobilized. A general note: An ELISA detects its analyte on a solid surface through an enzyme-linked reagent.
For the next test, the target named is soluble αvβ5 integrin (UniProt P06756 31-992; P18084 24-719). The test is described as above.
Test [3] has as its target T5, α5β1 integrin of endothelial cells (human, UniProt P08648 42-1049; P05556 21-798).
T5 construct: whole, on cells; On cells in the adhesion assays
In words: GST pull-down from 35S-labeled endothelial cell lysate, re-immunoprecipitation with P1D6.
From the text: (§1) Lysates were pre-adsorbed twice with GST-Sepharose beads to remove proteins that interact with GST-Sepharose beads non-specifically. […] The beads were then extensively washed. […] The samples were equally divided into three tubes and diluted with cold immunoprecipitation dilution buffer to adjust the concentration of SDS to <0.1%. The samples were then immediately subjected to immunoprecipitation with indicated antibodies (FIG. 10H).

For test [4], the target named is T6, αvβ3 integrin of endothelial cells (human, UniProt P06756 31-1048; P05106 27-788).
T6 construct: whole, on cells; On cells in the adhesion assays
In words: GST pull-down from 35S-labeled endothelial cell lysate, re-immunoprecipitation with LM609.
From the text: as §1

The target in test [5] is T1, p120catenin. In words: anti-HA co-immunoprecipitation from infected endothelial cells, anti-p120 catenin blot.
Method: Endothelial cells were solubilized in RIPA buffer, and immunoprecipitated using indicated antibodies (5 μg/1.5 mg protein). […] All blots shown are representative of those obtained in at least three separate experiments.
Cell extracts were immunoprecipitated with anti-HA (lanes 1, 2, 4, 5 and 6) or anti-p120 catenin (lane 3) monoclonal antibodies (mAb) and subjected to western immunoblot analysis with anti-p120 catenin (FIG. 17A). To determine the level of expression, the bottom portion of the blot was analyzed by immunoblotting with anti-HA mAbs (FIG. 17B).

Positions count from the first letter of the chain named. Where no end group is shown, it is not given here.

T6 sequence (P06756 31-1048, chain 1 of 2): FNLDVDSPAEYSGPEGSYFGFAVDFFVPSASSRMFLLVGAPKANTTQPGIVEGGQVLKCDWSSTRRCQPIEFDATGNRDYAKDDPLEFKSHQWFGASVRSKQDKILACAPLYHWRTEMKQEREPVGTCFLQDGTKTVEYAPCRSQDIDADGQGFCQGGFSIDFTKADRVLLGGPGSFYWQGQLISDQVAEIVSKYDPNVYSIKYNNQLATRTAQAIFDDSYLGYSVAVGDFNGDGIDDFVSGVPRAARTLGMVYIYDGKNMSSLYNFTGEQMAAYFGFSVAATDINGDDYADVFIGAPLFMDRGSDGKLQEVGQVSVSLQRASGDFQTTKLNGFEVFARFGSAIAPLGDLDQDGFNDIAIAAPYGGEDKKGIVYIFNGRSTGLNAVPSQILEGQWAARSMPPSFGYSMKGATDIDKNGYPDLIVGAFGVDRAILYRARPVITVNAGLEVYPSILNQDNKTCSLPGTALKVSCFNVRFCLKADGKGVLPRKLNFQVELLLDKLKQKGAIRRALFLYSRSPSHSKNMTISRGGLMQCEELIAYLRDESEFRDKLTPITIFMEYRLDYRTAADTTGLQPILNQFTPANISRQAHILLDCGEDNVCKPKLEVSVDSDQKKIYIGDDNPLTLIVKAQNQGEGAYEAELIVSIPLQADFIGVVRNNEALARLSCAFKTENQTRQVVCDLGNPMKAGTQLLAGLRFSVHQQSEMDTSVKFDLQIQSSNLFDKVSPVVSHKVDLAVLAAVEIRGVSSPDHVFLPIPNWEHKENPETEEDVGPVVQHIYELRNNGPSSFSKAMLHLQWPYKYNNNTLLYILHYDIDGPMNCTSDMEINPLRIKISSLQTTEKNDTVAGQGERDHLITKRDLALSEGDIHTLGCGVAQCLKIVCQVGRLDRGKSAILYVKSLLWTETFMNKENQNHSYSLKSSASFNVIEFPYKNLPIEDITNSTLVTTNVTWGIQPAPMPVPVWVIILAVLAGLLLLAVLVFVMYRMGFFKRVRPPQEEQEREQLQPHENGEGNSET
T6 sequence (P05106 27-788, chain 2 of 2): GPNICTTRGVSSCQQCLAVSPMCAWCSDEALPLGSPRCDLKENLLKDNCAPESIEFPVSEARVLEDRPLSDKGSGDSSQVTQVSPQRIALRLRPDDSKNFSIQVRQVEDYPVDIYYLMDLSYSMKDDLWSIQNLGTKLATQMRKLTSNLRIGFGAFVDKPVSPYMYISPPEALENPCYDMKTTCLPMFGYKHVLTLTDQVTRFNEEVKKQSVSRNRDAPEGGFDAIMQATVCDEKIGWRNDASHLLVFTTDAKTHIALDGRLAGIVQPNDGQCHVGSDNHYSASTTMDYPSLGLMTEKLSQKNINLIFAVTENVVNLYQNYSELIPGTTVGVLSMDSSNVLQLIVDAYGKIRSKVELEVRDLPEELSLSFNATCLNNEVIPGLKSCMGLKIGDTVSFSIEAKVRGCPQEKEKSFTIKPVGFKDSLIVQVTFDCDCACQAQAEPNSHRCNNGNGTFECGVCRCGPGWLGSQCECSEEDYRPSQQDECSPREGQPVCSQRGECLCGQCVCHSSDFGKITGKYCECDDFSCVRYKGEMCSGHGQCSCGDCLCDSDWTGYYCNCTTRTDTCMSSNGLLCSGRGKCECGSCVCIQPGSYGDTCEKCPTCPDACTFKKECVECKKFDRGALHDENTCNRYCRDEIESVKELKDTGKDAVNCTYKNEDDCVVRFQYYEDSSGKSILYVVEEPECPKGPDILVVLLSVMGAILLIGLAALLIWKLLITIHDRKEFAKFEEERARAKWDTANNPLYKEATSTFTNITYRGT
CD36, sequence (P16671 2-472 limits assumed): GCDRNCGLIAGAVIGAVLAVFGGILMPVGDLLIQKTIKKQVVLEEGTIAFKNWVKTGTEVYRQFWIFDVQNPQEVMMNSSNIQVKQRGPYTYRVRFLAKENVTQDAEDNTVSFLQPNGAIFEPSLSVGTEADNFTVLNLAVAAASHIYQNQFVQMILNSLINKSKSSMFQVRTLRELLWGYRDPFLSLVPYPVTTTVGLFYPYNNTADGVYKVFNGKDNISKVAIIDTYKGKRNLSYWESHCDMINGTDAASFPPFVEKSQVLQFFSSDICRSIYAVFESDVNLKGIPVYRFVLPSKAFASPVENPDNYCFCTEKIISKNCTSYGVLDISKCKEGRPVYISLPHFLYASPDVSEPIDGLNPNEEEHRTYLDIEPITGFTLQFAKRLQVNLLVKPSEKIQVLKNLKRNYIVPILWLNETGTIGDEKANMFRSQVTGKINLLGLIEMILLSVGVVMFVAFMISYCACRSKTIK
VEGF receptor-2 (VEGFR-2), sequence (P35968 20-1356 limits assumed): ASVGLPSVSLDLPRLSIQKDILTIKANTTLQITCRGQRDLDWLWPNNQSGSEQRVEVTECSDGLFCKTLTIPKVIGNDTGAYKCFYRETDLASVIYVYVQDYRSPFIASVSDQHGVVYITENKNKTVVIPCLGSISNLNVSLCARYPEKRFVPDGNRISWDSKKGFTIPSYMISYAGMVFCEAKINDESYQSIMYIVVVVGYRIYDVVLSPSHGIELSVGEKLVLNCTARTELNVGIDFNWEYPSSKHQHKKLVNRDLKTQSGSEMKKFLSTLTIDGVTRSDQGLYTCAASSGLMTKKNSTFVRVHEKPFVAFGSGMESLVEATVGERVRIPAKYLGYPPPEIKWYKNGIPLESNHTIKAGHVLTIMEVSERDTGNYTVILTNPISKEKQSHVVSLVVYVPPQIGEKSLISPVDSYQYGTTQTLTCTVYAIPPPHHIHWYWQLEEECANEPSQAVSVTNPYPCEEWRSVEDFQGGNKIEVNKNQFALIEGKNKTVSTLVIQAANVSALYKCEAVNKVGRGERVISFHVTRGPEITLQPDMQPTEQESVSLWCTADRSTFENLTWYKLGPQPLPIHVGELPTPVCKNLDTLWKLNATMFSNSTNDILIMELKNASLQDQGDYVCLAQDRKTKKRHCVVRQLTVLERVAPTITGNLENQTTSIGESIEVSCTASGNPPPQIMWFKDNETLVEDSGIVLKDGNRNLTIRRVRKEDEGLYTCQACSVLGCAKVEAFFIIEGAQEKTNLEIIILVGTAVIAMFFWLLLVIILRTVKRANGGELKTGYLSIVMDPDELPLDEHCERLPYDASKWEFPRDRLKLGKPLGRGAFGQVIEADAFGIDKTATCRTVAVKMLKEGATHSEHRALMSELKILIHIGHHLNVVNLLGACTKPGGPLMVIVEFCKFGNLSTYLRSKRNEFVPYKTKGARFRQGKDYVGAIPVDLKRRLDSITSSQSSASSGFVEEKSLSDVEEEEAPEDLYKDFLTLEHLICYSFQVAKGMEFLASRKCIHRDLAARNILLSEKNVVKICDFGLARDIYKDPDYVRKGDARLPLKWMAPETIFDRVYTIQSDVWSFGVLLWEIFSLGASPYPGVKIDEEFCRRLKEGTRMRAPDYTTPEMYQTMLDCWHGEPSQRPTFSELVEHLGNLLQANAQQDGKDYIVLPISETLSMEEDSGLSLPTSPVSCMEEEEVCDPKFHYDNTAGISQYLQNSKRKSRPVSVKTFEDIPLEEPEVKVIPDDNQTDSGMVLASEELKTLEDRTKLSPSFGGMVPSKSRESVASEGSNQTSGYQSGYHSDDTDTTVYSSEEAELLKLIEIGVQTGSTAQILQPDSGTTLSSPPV
Tie-2, sequence (Q02763 23-1124 limits assumed): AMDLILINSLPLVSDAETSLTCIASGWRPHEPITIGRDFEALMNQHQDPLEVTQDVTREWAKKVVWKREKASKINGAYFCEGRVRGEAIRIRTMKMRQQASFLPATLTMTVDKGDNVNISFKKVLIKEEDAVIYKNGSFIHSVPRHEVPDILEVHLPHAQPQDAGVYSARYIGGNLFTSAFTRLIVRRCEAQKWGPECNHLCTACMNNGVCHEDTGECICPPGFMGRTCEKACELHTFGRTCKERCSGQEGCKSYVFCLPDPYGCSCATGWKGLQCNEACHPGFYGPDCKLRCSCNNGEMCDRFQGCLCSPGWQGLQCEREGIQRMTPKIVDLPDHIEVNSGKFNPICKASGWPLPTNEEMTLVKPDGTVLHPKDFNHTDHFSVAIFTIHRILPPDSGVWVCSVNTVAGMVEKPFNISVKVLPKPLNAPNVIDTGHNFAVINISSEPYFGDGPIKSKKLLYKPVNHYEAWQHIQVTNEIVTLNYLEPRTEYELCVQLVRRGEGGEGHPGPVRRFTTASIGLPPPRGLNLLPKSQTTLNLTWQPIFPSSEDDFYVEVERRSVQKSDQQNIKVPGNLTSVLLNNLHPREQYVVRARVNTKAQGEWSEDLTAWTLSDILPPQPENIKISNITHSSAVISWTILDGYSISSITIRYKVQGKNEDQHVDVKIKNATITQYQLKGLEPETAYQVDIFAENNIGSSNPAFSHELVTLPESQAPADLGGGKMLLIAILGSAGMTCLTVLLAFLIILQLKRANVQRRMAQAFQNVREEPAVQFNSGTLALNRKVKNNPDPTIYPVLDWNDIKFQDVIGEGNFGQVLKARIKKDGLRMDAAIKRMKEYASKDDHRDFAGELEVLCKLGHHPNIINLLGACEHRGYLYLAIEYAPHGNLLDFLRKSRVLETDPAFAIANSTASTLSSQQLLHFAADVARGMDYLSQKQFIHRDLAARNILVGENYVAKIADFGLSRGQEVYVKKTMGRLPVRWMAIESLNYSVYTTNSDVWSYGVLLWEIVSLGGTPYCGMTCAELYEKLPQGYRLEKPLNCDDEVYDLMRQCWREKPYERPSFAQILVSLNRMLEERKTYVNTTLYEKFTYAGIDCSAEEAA
Method for soluble α2β1 integrin: (§2) Briefly, soluble α2β1, α5β1, αvβv3 and αvβ5 integrins (1 μg/ml in a solution containing 20 mM Tris pH 7.4, 150 mM NaCl, 1 mM CaCl₂, 1 mM MgCl₂ and 1 mM MnCl₂) were immobilized onto 96-well microtiter plates at 4° C. Wells were washed and blocked with 0.5% BSA. […] Plates were then washed again and the ABTS substrate (Bio-Rad) was added. All washing steps were carried out using PBS. Absorbances were read at 405 nm, and non-specific binding values were adjusted against BSA.
Method for soluble αvβ5 integrin: as §2

B1: wild-type VCIP/PAP2b, HA-tagged, expressed from pLNCX2-VCIP-RGD (other)
chain: YPYDVPDYAYPYDVPDYAYPYDVPDYAMQNYKYDKAIVPESKNGGSPALNNNPRRSGSKRVLLICLDLFCLFMAGLPFLIIETSTIKPYHRGFYCNDESIKYPLKTGETINDAVLCAVGIVIAILAIITGEFYRIYYLKKSRSTIQNPYVAALYKQVGCFLFGCAISQSFTDIAKVSIGRLRPHFLSVCNPDFSQINCSEGYIQNYRCRGDDSKVQEARKSFFSGHASFSMYTMLYLVLYLQARFTWRGARLLRPLLQFTLIMMAFYTGLSRVSDHKHHPSDVLAGFAQGALVACCIVFFVSDLFKTKTTLSLPAPAIRKEILSPVDIIDRNNHHNMM
notes: Expressed in HEK293, SW480 and HUVEC cells; also called VCIP-RGD (WT); pLNCX2-PAP2b-RGD
B1: the “LEF-1 luciferase (TOPFLASH) activity in SW480 cells, fold reduction, construct B” value with p120catenin [1] was roughly 3.2 fold. Also, the binding result (in test [2]; with Tie-2; with CD36; with PECAM-1; with VE-cadherin; with β-catenin) was “no binding” each time. In the test with γ-catenin (plakoglobin), the binding result is given as “no binding”.

B2: mutant VCIP/PAP2b-RGE, HA-tagged, expressed from pLNCX2-VCIP-RGE (other)
chain: B1 chain with D211E
Regarding B2, the “LEF-1 luciferase (TOPFLASH) activity in SW480 cells, fold reduction, construct C” value with p120catenin [1] was roughly 4.2 fold.

B3: GST-VCIP-RGD fusion protein (wild-type glutathione S-transferase-VCIP-RGD) (other)
chain: DIAKVSIGRLRPHFLSVCNPDFSQINCSEGYIQNYRCRGDDSKVQEARKS
modifications: cysteine pairing not given here; also: recombinant GST fusion
notes: also called GST-RGD-VCIP; recombinant VCIP-RGD; not shown: glutathione S-transferase (GST) encoded by the pGstag vector
Regarding B3, the binding result with soluble α2β1 integrin was “no binding (tested: 50-350 ng per well)”; in the test with soluble αvβ5 integrin, “no binding (tested: 50-350 ng per well)”; in test [3] it was “binds”; in [4], “binds”.

B4: PAP2b/VCIP retroviral construct E, lacking the entire C-terminal cytoplasmic segment (other, not shown: small tags and cut ends)
chain: MQNYKYDKAIVPESKNGGSPALNNNPRRSGSKRVLLICLDLFCLFMAGLPFLIIETSTIKPYHRGFYCNDESIKYPLKTGETINDAVLCAVGIVIAILAIITGEFYRIYYLKKSRSTIQNPYVAALYKQVGCFLFGCAISQSFTDIAKVSIGRLRPHFLSVCNPDFSQINCSEGYIQNYRCRGDDSKVQEARKSFFSGHASFSMYTMLYLVLYLQARFTWRGARLLRPLLQFTLIMMAFYTGLSRVSDHKHHPSDVLAGFAQGALVACCIVFFVSDLFKTKTT
notes: residues 1-283 follow from that; Expressed in endothelial cells, lysate used; also called Δ-C-Cyto-284-311; VCIP-Δ-C-cyto
For B4, in the test with p120catenin [5], the binding result is recorded as “no binding”.
